From patent US20060024667A1 (PRIMEX CLINICAL LABORATORIES, published 2006)
Positions of bridges follow the written chain, without caps; N, C: chain ends. No end group written: not given here.

B1: HCDR3-derived synthetic peptide N44 (peptide)
peptide: ASVRGWYVRSVFDPA
notes: HCDR3 of clone b4.4 with an alanine at each end, without cysteines; linear; also called linear N44; linear peptide N44
B2: scrambled cyclic peptide ScrC44 (peptide)
peptide: CADWRYRSVFGPVSVAC
modifications: disulfide 1-17 (inferred); not fully specified
notes: Negative control; also called Scr44; cyclic peptide with scrambled amino acids

What follows are binders tested against T1, biotinylated Aβ42 (human, UniProt P05067 672-713, biotinylated (site not stated)) (assay: ELISA, peptide coated at 10 µg/ml, biotinylated Aβ42 in solution).
T1 construct: domain: amyloid-beta peptide (Aβ42); Added in solution (PBS/1% BSA) to plates coated with the HCDR3-derived peptides; detected with avidin-peroxidase; also called Aβ42 (biotinylated)
T1 sequence (P05067 672-713 limits assumed): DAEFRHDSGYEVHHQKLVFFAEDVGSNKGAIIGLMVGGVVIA

Binder	binding result
IWGCSGKLICTTAVP (bridge 4-10 (inferred); also: cyclic via two Cys, bond not described, Negative control) [non-related cyclic peptide GM15]	no binding
B1	no binding
B2	no binding
